Laboratory results reported in paper PMC4877808.

Assays:
[1] = molecular target: His-tagged recombinant TcHpHbR (T. congolense haptoglobin-hemoglobin complex receptor, without the signal sequence) (Trypanosoma congolense IL3000); assay: SPR; quantitative: Biacore X, His-tagged receptor immobilised on CM5 (rTcHpHbR 800 RU, rTbHpHbR 480 RU), 30 μl/min, free-Hb and free-Hp 0.0001-10 μM; Kd = dissociation rate constant / association rate constant
[2] = molecular target: His-tagged recombinant TbHpHbR (T. brucei haptoglobin-hemoglobin complex receptor, without the signal sequence) (Trypanosoma brucei brucei GUTat 3.1); assay: as above

Molecule	Kd [1]	Kd [2]
bovine hemoglobin (free-Hb), from bovine erythrocytes (from UniProt P01966 1-142; P02070 1-145) (ligand)	20.5 nM	5300 nM
haptoglobin (free-Hp) (ligand) chain 1: VETGSEATADSCPKAPEIANSHVEYSVRYQCDKYYKLHAGNGVYTFNNKQWINKDIGQQLPECEEDDSCPEPPKIENGYVEYLVRYQCKPYYTLRTCGDGVYTFNSKKQWINKNIGQKLPECEAVCGKPKHPVDQVQ chain 2: IIGGSLDAKGSFPWQAKMVSQHNLISGATLINERWLLTTAKNLYLGHSSDKKAKDITPTLRLYVGKNQLVEVEKVVLHPDHSKVDIGLIKLRQKVPVNDKVMPICLPSKDYVKVGRVGYVSGWGRNENFNFTEHLKYVMLPVADQDKCVKHYEGVDAPKNKTAKSPVGVQPILNENTFCVGLSKYQDDTCYGDAGSAFVVHDKEDDTWYAAGILSFDKSCAVAEYGVYVKVTSILDWVRKTIANN	220 nM	1800 nM
